Assay results published in patent US20210230570A1 (published 2021).
Where a chain is given by its changes, count along the chain named. In names and notes the source's numbering stands.

B1: FIXa-A103N/N105S/K247N/N249S/R318Y/R338E/R403E/E410N (enzyme)
chain 1: YNSGKLEEFVQGNLERECMEEKCSFEEAREVFENTERTTEFWKQYVDGDQCESNPCLNGGSCKDDINSYECWCPFGFEGKNCELDVTCNIKNGRCEQFCKNSNDSKVVCSCTEGYRLAENQKSCEPAVPFPCGRVSVSQTSKLTR
chain 2: VVGGEDAKPGQFPWQVVLNGKVDAFCGGSIVNEKWIVTAAHCVETGVKITVVAGEHNIEETEHTEQNRSVIRIIPHHNYNAAINKYNHDIALLELDEPLVLNSYVTPICIADKEYTNIFLKFGSGYVSGWGRVFHKGYSALVLQYLRVPLVDRATCLESTKFTIYNNMFCAGFHEGGRDSCQGDSGGPHVTEVEGTSFLTGIISWGEECAMKGKYGIYTKVSEYVNWIKNKTKLT
B2: FIXa-I251S/R318Y/R338E/R403E/E410N (enzyme)
chain 1: B1 chain 1 with N103A, S105N
chain 2: B1 chain 2 with N67K, S69N, I71S
notes: also called I86S/R150Y/R170E/R233E/E240N (chymotrypsin numbering)
B3: FIXa-K228N/K247N/N249S/R318Y/R338E/R403E/E410N (enzyme)
chain 1: B1 chain 1 with N103A, S105N
chain 2: B1 chain 2 with K48N
notes: also called K63N/K82N/N84S/R150Y/R170E/R233E/E240N (chymotrypsin numbering)
B4: FIXa-R318Y/R338E/N346D/R403E/E410N (enzyme)
chain 1: B1 chain 1 with N103A, S105N
chain 2: B1 chain 2 with N67K, S69N, N166D
notes: also called R150Y/R170E/N178D/R233E/E240N (chymotrypsin numbering)
B5: FIXa-R318Y/R338E/T343R/N346D/R403E/E410N (enzyme)
chain 1: B1 chain 1 with N103A, S105N
chain 2: B1 chain 2 with N67K, S69N, T163R, N166D
notes: also called R150Y/R170E/T175R/N178D/R233E/E240N (chymotrypsin numbering)
B6: FIXa-K247N/N249S/N260S/R318Y/R338E/R403E/E410N (enzyme)
chain 1: B1 chain 1 with N103A, S105N
chain 2: B1 chain 2 with N80S
notes: also called K82N/N84S/N95S/R150Y/R170E/R233E/E240N (chymotrypsin numbering)
B7: FIXa-R318Y/R338E/R403E/E410S (enzyme)
chain 1: B1 chain 1 with N103A, S105N
chain 2: B1 chain 2 with N67K, S69N, N230S
notes: also called R150Y/R170E/R233E/E240S (chymotrypsin numbering)
B8: FIXa-R318Y/R338E/T343R/R403E/E410N (enzyme)
chain 1: B1 chain 1 with N103A, S105N
chain 2: B1 chain 2 with N67K, S69N, T163R
notes: also called R150Y/R170E/T175R/R233E/E240N (chymotrypsin numbering)
B9: FIXa-D104N/K106S/K247N/N249S/R318Y/R338E/R403E/E410N (enzyme)
chain 1: B1 chain 1 with N103A, D104N, S105N, K106S
chain 2: B1 chain 2
B10: FIXa-R318Y/R338E/E410N/T412V (enzyme)
chain 1: B1 chain 1 with N103A, S105N
chain 2: B1 chain 2 with N67K, S69N, E223R, T232V
notes: also called R150Y/R170E/E240N/T242V (chymotrypsin numbering)
B11: FIXa-K228N/K247N/N249S (enzyme)
chain 1: B1 chain 1 with N103A, S105N
chain 2: B1 chain 2 with K48N, Y138R, E158R, E223R, N230E
notes: also called K63N/K82N/N84S (chymotrypsin numbering)
B12: FIXa-K247N/N249S/N260S (enzyme)
chain 1: B1 chain 1 with N103A, S105N
chain 2: B1 chain 2 with N80S, Y138R, E158R, E223R, N230E
notes: also called K82N/N84S/N95S (chymotrypsin numbering)
B13: FIXa-Y155F/K247N/N249S/N260S (enzyme)
chain 1: B1 chain 1 with N103A, S105N
chain 2: B1 chain 2 with N80S, Y138R, E158R, E223R, N230E
B14: FIXa-Y259F/K265T/Y345T (enzyme)
chain 1: B1 chain 1 with N103A, S105N
chain 2: B1 chain 2 with N67K, S69N, Y79F, K85T, Y138R, E158R, Y165T, E223R, N230E
notes: also called Y94F/K98T/Y177T (chymotrypsin numbering)
B15: FIXa-I251S/R318Y/R338E/E410N (enzyme)
chain 1: B1 chain 1 with N103A, S105N
chain 2: B1 chain 2 with N67K, S69N, I71S, E223R
notes: also called I251S/R318Y/E410N/R338E; I86S/R150Y/R170E/E240N (chymotrypsin numbering)
B16: FIXa-D104N/K106S/I251S/R318Y/R338E/R403E/E410N (enzyme)
chain 1: B1 chain 1 with N103A, D104N, S105N, K106S
chain 2: B1 chain 2 with N67K, S69N, I71S
B17: FIXa-R318Y/R338E/R403E/E410N/T412V (enzyme)
chain 1: B1 chain 1 with N103A, S105N
chain 2: B1 chain 2 with N67K, S69N, T232V
notes: also called R150Y/R170E/R233E/E240N/T242V (chymotrypsin numbering)
B18: FIXa-R318Y/R338E/E410S (enzyme)
chain 1: B1 chain 1 with N103A, S105N
chain 2: B1 chain 2 with N67K, S69N, E223R, N230S
notes: also called R150Y/R170E/E240S (chymotrypsin numbering)
B19: FIXa-Y155F/K247N/N249S/R318Y/R338E/E410N (enzyme)
chain 1: B1 chain 1 with N103A, S105N
chain 2: B1 chain 2 with E223R
B20: FIXa-R318Y/R338E/T343R/N346Y/R403E/E410N (enzyme)
chain 1: B1 chain 1 with N103A, S105N
chain 2: B1 chain 2 with N67K, S69N, T163R, N166Y
notes: also called R150Y/R170E/T175R/N178Y/R233E/E240N (chymotrypsin numbering)
B21: FIXa-Y155F/K228N/R318Y/R338E/R403E/E410N (enzyme)
chain 1: B1 chain 1 with N103A, S105N
chain 2: B1 chain 2 with K48N, N67K, S69N
B22: FIXa-D104N/K106S/I251S/R318Y/R338E/E410N (enzyme)
chain 1: B1 chain 1 with N103A, D104N, S105N, K106S
chain 2: B1 chain 2 with N67K, S69N, I71S, E223R
B23: FIXa-R318Y/R338E/N346Y/R403E/E410N (enzyme)
chain 1: B1 chain 1 with N103A, S105N
chain 2: B1 chain 2 with N67K, S69N, N166Y
notes: also called R150Y/R170E/N178Y/R233E/E240N (chymotrypsin numbering)

Target: T1, Factor VIIIa (recombinant FVIII, Kogenate FS, Bayer healthcare, activated with alpha-thrombin) (UniProt P00451 20-2351, limits assumed)
T1 construct: also called FVIIIa; cofactor
T1 sequence (looked up): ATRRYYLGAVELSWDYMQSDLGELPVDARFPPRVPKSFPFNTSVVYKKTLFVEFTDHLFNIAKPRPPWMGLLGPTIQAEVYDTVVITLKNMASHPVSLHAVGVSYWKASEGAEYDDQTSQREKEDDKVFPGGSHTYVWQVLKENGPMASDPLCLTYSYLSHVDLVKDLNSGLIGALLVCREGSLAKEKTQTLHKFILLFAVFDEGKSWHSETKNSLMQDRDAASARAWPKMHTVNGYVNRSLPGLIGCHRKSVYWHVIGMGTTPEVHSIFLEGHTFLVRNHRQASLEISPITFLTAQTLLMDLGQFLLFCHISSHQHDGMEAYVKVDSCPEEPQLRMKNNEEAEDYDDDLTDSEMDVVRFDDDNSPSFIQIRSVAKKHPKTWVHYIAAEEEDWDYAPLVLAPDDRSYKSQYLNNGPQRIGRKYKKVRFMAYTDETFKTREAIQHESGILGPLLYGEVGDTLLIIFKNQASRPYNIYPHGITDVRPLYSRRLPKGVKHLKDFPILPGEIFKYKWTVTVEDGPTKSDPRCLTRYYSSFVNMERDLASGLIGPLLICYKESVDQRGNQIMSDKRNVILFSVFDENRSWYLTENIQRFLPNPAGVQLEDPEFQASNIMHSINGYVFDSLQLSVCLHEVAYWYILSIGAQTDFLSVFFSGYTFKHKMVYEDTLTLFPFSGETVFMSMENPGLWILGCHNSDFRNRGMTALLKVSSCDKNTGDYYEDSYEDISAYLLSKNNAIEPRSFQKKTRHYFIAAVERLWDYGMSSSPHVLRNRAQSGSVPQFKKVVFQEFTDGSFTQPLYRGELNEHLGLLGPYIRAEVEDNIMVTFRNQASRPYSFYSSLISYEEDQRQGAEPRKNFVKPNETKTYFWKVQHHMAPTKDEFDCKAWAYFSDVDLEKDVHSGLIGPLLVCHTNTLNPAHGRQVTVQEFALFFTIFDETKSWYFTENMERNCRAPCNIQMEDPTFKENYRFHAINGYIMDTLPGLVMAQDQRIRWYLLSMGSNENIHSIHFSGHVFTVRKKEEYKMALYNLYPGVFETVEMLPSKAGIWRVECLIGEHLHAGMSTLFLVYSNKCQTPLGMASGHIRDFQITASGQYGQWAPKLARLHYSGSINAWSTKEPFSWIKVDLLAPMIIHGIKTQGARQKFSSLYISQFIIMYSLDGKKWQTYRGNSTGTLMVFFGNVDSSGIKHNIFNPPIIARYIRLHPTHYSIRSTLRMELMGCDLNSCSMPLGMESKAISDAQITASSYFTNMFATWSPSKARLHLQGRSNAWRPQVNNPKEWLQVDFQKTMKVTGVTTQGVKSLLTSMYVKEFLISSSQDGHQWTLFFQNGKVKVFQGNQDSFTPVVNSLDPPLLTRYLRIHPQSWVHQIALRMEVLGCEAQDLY
Assay: same assay; KD-app of Catalyst Biosciences WT FIXa divided by KD-app of the variant
Description: The molar concentration of FVIII was then determined by absorbance at 280 nm using an extinction coefficient of 1.567 mg⁻¹ mL cm⁻¹ and a molecular weight of 163.6 kDa.

| Binder | KD-WT/KD-mut [ratio] |
| --- | --- |
| B1 | 1 |
| B2 | 1.5 |
| B3 | 0.9 |
| B4 | 0.9 |
| B5 | 1.3 |
| B6 | 1.5 |
| B7 | 1.8 |
| B8 | 6.6 |
| B9 | 1.1 |
| B10 | 10.7 |
| B11 | 0.8 |
| B12 | 0.6 |
| B13 | 0.6 |
| B14 | 0.8 |
| B15 | 16.7 |
| B16 | 1.7 |
| B17 | 1.7 |
| B18 | 14.1 |
| B19 | 12.8 |
| B20 | 6.1 |
| B21 | 3.1 |
| B22 | 7.7 |
| B23 | 2.4 |
